Results from publication PMC4191397.

Columns and labels:
[1] = target: T1, NS3h (NS3 helicase domain) (Dengue virus serotype 2 (infectious …, UniProt O09234 1646-2093)); assay: fluorescence titration
[2] = target: T1, NS3h (NS3 helicase domain); assay: competition
[3] = target: T1, NS3h (NS3 helicase domain); assay: competition; remark: listed apart in the source
[4] = target: T1, NS3h (NS3 helicase domain); assay: EMSA
[5] = target: T1, NS3h (NS3 helicase domain); assay: competition; remark: listed apart in the source
[6] = target: T1, NS3h (NS3 helicase domain); assay: competition; remark: listed apart in the source

B1: F-p-R10 (ssRNA)
RNA: AGUUGAGUUG
Ka [1]: 11.3 ± 0.1 10^6 M-1

B2: R15 (ssRNA)
RNA: AGUUGAGUUGAGUUG
Ka [2]: 7.4 ± 0.2 10^6 M-1

B3: R12 (ssRNA)
RNA: AGUUGAGUUGAG
Ka [2]: 2.64 ± 0.06 10^6 M-1

B4: F-p-R12 (ssRNA)
RNA: AGUUGAGUUGAG
Ka [1]: 20.8 ± 0.5 10^6 M-1

B5: (U)12 (ssRNA)
RNA: UUUUUUUUUUUU
binding result [3]: no binding

B6: R18 (ssRNA)
RNA: AGUUGAGUUGAGUUGAGU
Ka [2]: 11.5 ± 0.3 10^6 M-1

B7: F-p-D20 (ssDNA)
DNA: AGTTGAGTTGAGTTGAGTTG
binding result [4]: no binding

B8: R20 (ssRNA)
RNA: AGUUGAGUUGAGUUGAGUUG
Ka [5]: 16.7 ± 0.7 10^6 M-1
Ka [6]: 0.6 ± 0.1 10^6 M-1

B9: R10 (ssRNA)
RNA: AGUUGAGUUG
Ka [2]: 1.69 ± 0.04 10^6 M-1
